Experiment [1] deals with ctPrp43 (DEAH-box RNA helicase Prp43 from Chaetomium thermophilum), wild type (C. thermophilum) (UniProt G0RY84).
Experiment [2] shares this target. This is another data set of the same source.
Experiment [3] addresses ctPrp43(R180G, F181G) (C. thermophilum).
Experiment [4] addresses ctPrp43(R180G, F181G, Y348G, T350G) (C. thermophilum).
For experiment [5], the target named is ctPrp43(F181C, N623C) (C. thermophilum).
In experiment [6] the target is ctPrp43(Y348G, T350G) (C. thermophilum).

“ctNtr1(242-305), truncated G-patch construct of the C. thermophilum Ntr1 homolog (domain or fragment)”: the helicase activity (maximal unwinding velocity of a dsRNA with 3' overhang; 250 nM ctPrp43, 1.25 uM G-patch; ctPrp43 alone 0.54 nM/min) in experiment [1] stood at 1.98 nM/min. The ATPase activity kcat with five-fold excess of G-patch, no RNA (ctPrp43 alone 1.81 min^-1) in experiment [2] came to 0.0693 s⁻¹.
In the case of “ctPfa1(662-742), truncated G-patch construct of the C. thermophilum Pfa1 homolog (domain or fragment)”, the helicase activity (maximal unwinding velocity of a dsRNA with 3' overhang; 250 nM ctPrp43, 1.25 uM G-patch; ctPrp43 alone 0.54 nM/min) in experiment [1] was determined as 60 nM/min. In experiment [3], this substance had an ATPase activity kcat with five-fold excess of G-patch, no RNA (ctPrp43-HT alone 13.21 min^-1) of 1.02 s⁻¹. The same substance showed an ATPase activity kcat with five-fold excess of G-patch, no RNA (ctPrp43-HT&HL alone 7.61 min^-1) in experiment [4] of 1.89 s⁻¹. The substance further showed an ATPase activity kcat with five-fold excess of G-patch, no RNA (ctPrp43-IDSB alone 5.04 min^-1) in experiment [5] of 3.32 s⁻¹. Besides, the ATPase activity kcat with five-fold excess of G-patch, no RNA (ctPrp43 alone 1.81 min^-1) in experiment [2] amounted to 0.605 s⁻¹. In addition, the ATPase activity kcat with five-fold excess of G-patch, no RNA (ctPrp43-HL alone 6.19 min^-1) in experiment [6] was 1.44 s⁻¹.

Source of the values: article PMC5262380, “Structural insights into the mechanism of the DEAH-box RNA helicase Prp43” (eLife, 2017).
